{"source": "paper PMC10349104", "key": {"EVA-4": {"target": "EVA-4 (UniProt P0C8E9)", "test": "not stated; Kd of EVA-4 for human chemokines, three readings (source data of Supplementary Fig. 7); method and conditions not told for EVA-4"}, "[1]": {"target": "EVA-A(Y44A) (A. americanum)", "test": "SPR"}, "[2]": {"target": "EVA-A(Y44A) (Amblyomma americanum)", "test": "SPR"}, "[3]": {"target": "EVA-A(L39P) (Amblyomma americanum)", "test": "SPR"}, "[4]": {"target": "EVA-A(DC) (Amblyomma americanum)", "test": "SPR"}, "[5]": {"target": "EVA-A(L39P) (A. americanum)", "test": "SPR"}, "[6]": {"target": "EVA-A(C8) (Amblyomma americanum)", "test": "SPR"}, "[7]": {"target": "EVA-A(21-102) (A. americanum)", "test": "SPR"}, "[8]": {"target": "EVA-A(DN) (Amblyomma americanum)", "test": "SPR"}, "[9]": {"target": "EVA-A(C8) (A. americanum)", "test": "SPR"}, "[10]": {"target": "EVA-A(1-98) (A. americanum)", "test": "SPR"}}, "note": "Where “and” joins values, the source holds several entries; their conditions need not be identical. Identical values can stand only once.", "data": [{"substance": "CCL16 (from UniProt O15467 24-120) (ligand)", "values": [{"measurement": "Kd", "setting": "EVA-4", "value": "2.31 nM and 4.95 nM and 5 nM"}, {"measurement": "Kd", "setting": "[1]", "value": 0.2, "unit": "nM"}, {"measurement": "koff", "setting": "[1]", "value": 0.00013, "unit": "s⁻¹"}, {"measurement": "kon", "setting": "[1]", "value": 664000, "unit": "M⁻¹ s⁻¹"}, {"measurement": "Kd", "setting": "[2]", "value": "0.181 nM and 0.268 nM and 0.148 nM"}, {"measurement": "koff", "setting": "[2]", "value": "0.0001 s⁻¹ and 0.000143 s⁻¹ and 0.000134 s⁻¹"}, {"measurement": "kon", "setting": "[2]", "value": "552000 M⁻¹ s⁻¹ and 534000 M⁻¹ s⁻¹ and 906000 M⁻¹ s⁻¹"}, {"measurement": "Kd", "setting": "[3]", "value": "0.188 nM and 0.138 nM"}, {"measurement": "koff", "setting": "[3]", "value": "0.000226 s⁻¹ and 0.000159 s⁻¹"}, {"measurement": "kon", "setting": "[3]", "value": "1.2e+06 M⁻¹ s⁻¹ and 1.15e+06 M⁻¹ s⁻¹"}, {"measurement": "Kd", "setting": "[4]", "value": "0.499 pM and 3.52 pM and 2.69 pM"}, {"measurement": "kon", "setting": "[4]", "value": "256000 M⁻¹ s⁻¹ and 253000 M⁻¹ s⁻¹ and 265000 M⁻¹ s⁻¹"}, {"measurement": "Kd", "setting": "[5]", "value": 0.17, "unit": "nM"}, {"measurement": "koff", "setting": "[5]", "value": 0.00016, "unit": "s⁻¹"}, {"measurement": "kon", "setting": "[5]", "value": "1.18e+06", "unit": "M⁻¹ s⁻¹"}, {"measurement": "Kd", "setting": "[6]", "value": "1.95 nM and 1.84 nM"}, {"measurement": "koff", "setting": "[6]", "value": "0.000666 s⁻¹ and 0.000831 s⁻¹"}, {"measurement": "kon", "setting": "[6]", "value": "341000 M⁻¹ s⁻¹ and 451000 M⁻¹ s⁻¹"}, {"measurement": "Kd", "setting": "[7]", "value": 0.22, "unit": "nM"}, {"measurement": "koff", "setting": "[7]", "value": 0.00019, "unit": "s⁻¹"}, {"measurement": "kon", "setting": "[7]", "value": 831000, "unit": "M⁻¹ s⁻¹"}, {"measurement": "Kd", "setting": "[8]", "value": "0.223 nM and 0.225 nM and 0.22 nM"}, {"measurement": "koff", "setting": "[8]", "value": "0.000191 s⁻¹ and 0.000182 s⁻¹ and 0.000181 s⁻¹"}, {"measurement": "kon", "setting": "[8]", "value": "858000 M⁻¹ s⁻¹ and 809000 M⁻¹ s⁻¹ and 826000 M⁻¹ s⁻¹"}, {"measurement": "Kd", "setting": "[9]", "value": 1.9, "unit": "nM"}, {"measurement": "koff", "setting": "[9]", "value": 0.00075, "unit": "s⁻¹"}, {"measurement": "kon", "setting": "[9]", "value": 396000, "unit": "M⁻¹ s⁻¹"}, {"measurement": "Kd", "setting": "[10]", "value": "< 0.1", "unit": "nM"}, {"measurement": "koff", "setting": "[10]", "value": "< 0.0001", "unit": "s⁻¹"}, {"measurement": "kon", "setting": "[10]", "value": 258000, "unit": "M⁻¹ s⁻¹"}]}]}
